Data taken from article PMC10950897, “VCF1 is a p97/VCP cofactor promoting recognition of ubiquitylated p97-UFD1-NPL4 substrates” (Nature Communications, 2024).

Experiments:
[1] = tested on: p97 with UFD1-NPL4, p47 or FAF1; experiment: In vitro binding with p97 cofactors (GST, StrepTactin, p47, p97 or FLAG pulldown); design: species or system human; conditions: high/increasing concentrations
Protocol: All in vitro binding experiments were performed in EBC or RIPA buffer as indicated. Recombinant Biotin-tagged K48-linked poly-ubiquitin chains (2−7) and K48-linked poly-ubiquitin chains (2−16) were purchased from R&D Systems and Enzo Life Science, respectively. Recombinant proteins were incubated with Strep-Tactin Sepharose (IBA), Glutathione agarose (Gold Biotechnology) or […] Fab-trap agarose (ChromoTek) overnight on an end-over-end rotator at 4 °C, washed six times with EBC or RIPA buffer, and resuspended in 2×Laemmli sample buffer. For p97, VCF1 or p47 pulldowns, antibodies (0.5 µg/sample) were coupled to agarose beads, incubated with recombinant proteins or cell lysates and washed with the indicated buffer. To assess p97-UFD1-NPL4 binding to ubiquitylated proteins in total cell extracts, U2OS cells were lysed in EBC buffer supplemented with protease and phosphatase inhibitors, sonicated and incubated on ice for 10 min. Lysates were cleared by centrifugation for 10 min at 16,100 × g. Cell lysate (40 µg) was added to recombinant proteins in EBC buffer, incubated overnight on the rotator with […] Fab-trap agarose (ChromoTek), and beads were washed six times.

p97 = conditions: reported for p47/NSFL1C; cited from earlier work
Description: Through in silico searches for candidate regulators of p97 function, we came across FAM104A, a virtually uncharacterized protein detected in unbiased large-scale proteomic profiles of p97 interaction networks along with known p97 cofactors (Supplementary Fig. 1a)[20],[21], but whose precise connection to p97 has not been studied. In humans, FAM104A encodes a relatively small protein of 186 amino acids that contains no annotated domains but is conserved across vertebrates (Supplementary Fig. 1b) and is broadly expressed, albeit at low levels, in human tissues. For reasons described in the follo ...

[2] = tested on: GFP-VCF1 WT interactome, U2OS cells; experiment: GFP IP mass spectrometry of VCF1-interacting proteins, partially denaturing RIPA buffer (+DOX/-DOX); type: binding, human
Protocol: (§1) U2OS (catalog no. HTB-96) cells were obtained from ATCC. HEK293-EBNA1-6E cells were a kind gift from Yves Durocher (National Research Council Canada, Montreal, Canada). All mammalian cell lines were cultured under standard conditions at 37 °C and 5% CO2 in DMEM (Thermo) supplemented with 10% FBS (v/v) and penicillin-streptomycin (Thermo). Recombination cloning-compatible U2OS cells were generated using the Flp-In T-Rex Core Kit (Thermo) according to the manufacturer’s instructions and maintained under selection using Blasticidin (Invivogen) and Zeocin (Thermo). To generate cell lines stably expressing GFP-VCF1, U2OS Flp-In T-Rex cells (Thermo) were co-transfected with GFP-VCF1 constructs and pOG44 (Thermo) plasmids, followed by selection with Hygromycin (Invitrogen). Single clones were carefully screened for uniform expression of ectopic GFP-VCF1 at low levels and maintained under selection with Blasticidin and Hygromycin. To induce GFP-VCF1 expression, cells were treated with Doxycycline (DOX) (0.5 µg/ml) for 16 h. U2OS cell lines stably expressing Ub(G76V)-GFP or Ub(G76V)-GFP-20AA were described previously. A U2OS cell line stably expressing Ub(G76V)-GFP-NES was generated under G418 (Invivogen) selection. Clones with low baseline GFP expression were visually screened for low basal GFP expression. All cell lines used in this study were regularly tested negative for mycoplasma infection and were not authenticated.
Immunoblotting was performed as previously described. Immunoprecipitation (IP) of HA-tagged proteins was performed using Anti-HA Affinity matrix (Roche) under denaturing conditions, unless otherwise stated. GFP-trap and […] Fab-trap agarose (Chromotek) were used according to manufacturer’s instructions. Cell lysis was performed using RIPA buffer (140 mM NaCl; 10 mM Tris-HCl, pH 8.0; 0.1% sodium deoxycholate; 1% Triton X-100; 0.1% SDS; 1 mM EDTA; 0.5 mM EGTA) or EBC buffer (50 mM Tris, pH 7.5; 150 mM NaCl; 1 mM EDTA; 0.5% NP-40, 1 mM DTT). IPs were washed in non-denaturing buffer (50 mM Tris-HCl, pH 7.5; 150 mM NaCl; 0.5 mM EDTA). […]

[3] = tested on: GFP-VCF1 WT / N167A interactome, U2OS cells; experiment: GFP IP mass spectrometry, comparison of VCF1 WT and N167A interactomes (WT/N167A); type: binding, human; conditions: GFP-VCF1 WT / N167A IPs, partially denaturing RIPA buffer
Protocol: as §1, with “All cell lines used in this study were regularly tested negative for mycoplasma infection and were not authenticated.” left out

Molecule | Relative protein level (log2) WT/noDox [2] | also measured
p47: p97 cofactor (protein, left off: His6, end not stated, state not stated, p97 cofactor) MAAERQEALREFVAVTGAEEDRARFFLESAGWDLQIALASFYEDGGDEDIVTISQATPSSVSRGTAPSDNRVTSFRDLIHDQDEDEEEEEGQRFYAGGSERSGQQIVGPPRKKSPNELVDDLFKGAKEHGAVAVERVTKSPGETSKPRPFAGGGYRLGAAPEEESAYVAGEKRQHSSQDVHVVLKLWKSGFSLDNGELRSYQDPSNAQFLESIRRGEVPAELRRLAHGGQVNLDMEDHRDEDFVKPKGAFKAFTGEGQKLGSTAPQVLSTSSPAQQAENEAKASSSILIDESEPTTNIQIRLADGGRLVQKFNHSHRISDIRLFIVDARPAMAATSFILMTTFPNKELADESQTLKEANLLNAVIVQRLT | – | displacement of p97-bound cofactors [1]: did not lead to dissociation of VCF1 from p97; Kd (p97): 200 to 500 nM
Complement component 1 Q subcomponent-binding protein, mitochondrial (protein, UniProt Q07021 74-282, looked up, prey protein) Complement component 1 Q …: LHTDGDKAFVDFLSDEIKEERKIQKHKTLPKMSGGWELELNGTEAKLVRKVAGEKITVTFNINNSIPPTFDGEEEPSQGQKVEEQEPELTSTPNFVVEVIKNDDGKKALVLDCHYPEDEVGQEDEAESDIFSIREVSFQSTGESEWKDTNYTLNTDSLDWALYDHLMDFLADRGVDNTFADELVELSTALEHQEYITFLEDLKSFVKSQ | 2.689 log2 | –
Isocitrate dehydrogenase [NAD] subunit gamma, mitochondrial (protein, UniProt P51553 40-393, looked up, prey protein) Isocitrate dehydrogenase …: FSEQTIPPSAKYGGRHTVTMIPGDGIGPELMLHVKSVFRHACVPVDFEEVHVSSNADEEDIRNAIMAIRRNRVALKGNIETNHNLPPSHKSRNNILRTSLDLYANVIHCKSLPGVVTRHKDIDILIVRENTEGEYSSLEHESVAGVVESLKIITKAKSLRIAEYAFKLAQESGRKKVTAVHKANIMKLGDGLFLQCCREVAARYPQITFENMIVDNTTMQLVSRPQQFDVMVMPNLYGNIVNNVCAGLVGGPGLVAGANYGHVYAVFETATRNTGKSIANKNIANPTATLLASCMMLDHLKLHSYATSIRKAVLASMDNENMHTPDIGGQGTTSEAIQDVIRHIRVINGRAVEA | 1.726 log2 | –
U4/U6.U5 tri-snRNP-associated protein 2 (protein, UniProt Q53GS9 1-565, looked up, prey protein) Ubiquitin carboxyl-terminal …: MSGRSKRESRGSTRGKRESESRGSSGRVKRERDREREPEAASSRGSPVRVKREFEPASAREAPASVVPFVRVKREREVDEDSEPEREVRAKNGRVDSEDRRSRHCPYLDTINRSVLDFDFEKLCSISLSHINAYACLVCGKYFQGRGLKSHAYIHSVQFSHHVFLNLHTLKFYCLPDNYEIIDSSLEDITYVLKPTFTKQQIANLDKQAKLSRAYDGTTYLPGIVGLNNIKANDYANAVLQALSNVPPLRNYFLEEDNYKNIKRPPGDIMFLLVQRFGELMRKLWNPRNFKAHVSPHEMLQAVVLCSKKTFQITKQGDGVDFLSWFLNALHSALGGTKKKKKTIVTDVFQGSMRIFTKKLPHPDLPAEEKEQLLHNDEYQETMVESTFMYLTLDLPTAPLYKDEKEQLIIPQVPLFNILAKFNGITEKEYKTYKENFLKRFQLTKLPPYLIFCIKRFTKNNFFVEKNPTIVNFPITNVDLREYLSEEVQAVHKNTTYDLIANIVHDGKPSEGSYRIHVLHHGTGKWYELQDLQVTDILPQMITLSEAYIQIWKRRDNDETNQQGA | 1.44 log2 | –
LMNA (protein, UniProt P02545 1-661, looked up) Prelamin-A/C: METPSQRRATRSGAQASSTPLSPTRITRLQEKEDLQELNDRLAVYIDRVRSLETENAGLRLRITESEEVVSREVSGIKAAYEAELGDARKTLDSVAKERARLQLELSKVREEFKELKARNTKKEGDLIAAQARLKDLEALLNSKEAALSTALSEKRTLEGELHDLRGQVAKLEAALGEAKKQLQDEMLRRVDAENRLQTMKEELDFQKNIYSEELRETKRRHETRLVEIDNGKQREFESRLADALQELRAQHEDQVEQYKKELEKTYSAKLDNARQSAERNSNLVGAAHEELQQSRIRIDSLSAQLSQLQKQLAAKEAKLRDLEDSLARERDTSRRLLAEKEREMAEMRARMQQQLDEYQELLDIKLALDMEIHAYRKLLEGEEERLRLSPSPTSQRSRGRASSHSSQTQGGGSVTKKRKLESTESRSSFSQHARTSGRVAVEEVDEEGKFVRLRNKSNEDQSMGNWQIKRQNGDDPLLTYRFPPKFTLKAGQVVTIWAAGAGATHSPPTDLVWKAQNTWGCGNSLRTALINSTGEEVAMRKLVRSVTVVEDDEDEDGDDLLHHHHGSHCSSSGDPAEYNLRSRTVLCGTCGQPADKASASGSGAQVGGPISSGSSASSVTVTRSYRSVGGSGGGSFGDNLVTRSYLLGNSSPRTQSPQNC | – | Relative protein level (log2) WT/MUT [3]: 3.361 log2
